This passage reports Kd results from PMC2991585.

The target in this experiment is actin filament (barbed end) (UniProt P68135). Briefly: seeded pyrene-actin polymerization.

In general, Kd refers to the concentration at which binding is half-saturated. Low readings indicate tighter binding, high ones weaker binding.

“CPαβ(ΔC34) (from UniProt P47753 1-286; P47757-2 1-272) (complex)”: the Kd is 33.2 nM.
